Assay results taken from paper PMC4721528.
Substitutions are numbered along the chain they refer to. In names and notes the source's numbering stands.

B1: mCOX-2 (mouse COX-2) (Mus musculus; L489M) (protein)
chain: ANPCCSNPCQNRGECMSTGFDQYKCDCTRTGFYGENCTTPEFLTRIKLLLKPTPNTVHYILTHFKGVWNIVNNIPFLRSLIMKYVLTSRSYLIDSPPTYNVHYGYKSWEAFSNLSYYTRALPPVADDCPTPMGVKGNKELPDSKEVLEKVLLRREFIPDPQGSNMMFAFFAQHFTHQFFKTDHKRGPGFTRGLGHGVDLNHIYGETLDRQHKLRLFKDGKLKYQVIGGEVYPPTVKDTQVEMIYPPHIPENLQFAVGQEVFGLVPGLMMYATIWLREHNRVCDILKQEHPEWGDEQLFQTSRLILIGETIKIVIEDYVQHLSGYHFKLKFDPELLFNQQFQYQNRIASEFNTLYHWHPLLPDTFNIEDQEYSFKQFLYNNSILLEHGLTQFVESFTRQIAGRVAGGRNVPIAVQAVAKASIDQSREMKYQSLNEYRKRFSLKPYTSFEELTGEKEMAAELKALYSDIDVMEMYPALLVEKPRPDAIFGETMVELGAPFSLKGLMGNPICSPQYWKPSTFGGEVGFKIINTASIQSLICNNVKGCPFTSFNVQDPQPTKTATINASASHSRLDDINPTVLIKRRSTEL
B2: mCOX-2 (mouse COX-2) (Mus musculus) (protein)
chain: B1 chain with M472L

Substrate: CCCCC/C=C\C/C=C\C/C=C\C/C=C\CCCC(=O)O
Experiment: mass spectrometric product formation assay
Format: biochemical, Mus musculus
Conditions: 50 nM enzyme

Row | Protein | Km [µM] | kcat [s^–1]
1 | B1 | 1.4 ± 0.3 | 3.3 ± 0.1
2 | B2 | 2.3 ± 0.3 | 3.1 ± 0.1
